Test results taken from PMC7219890 (2020).

T1: Mical-1 (Homo sapiens, UniProt Q8TDZ2)
T1 chain: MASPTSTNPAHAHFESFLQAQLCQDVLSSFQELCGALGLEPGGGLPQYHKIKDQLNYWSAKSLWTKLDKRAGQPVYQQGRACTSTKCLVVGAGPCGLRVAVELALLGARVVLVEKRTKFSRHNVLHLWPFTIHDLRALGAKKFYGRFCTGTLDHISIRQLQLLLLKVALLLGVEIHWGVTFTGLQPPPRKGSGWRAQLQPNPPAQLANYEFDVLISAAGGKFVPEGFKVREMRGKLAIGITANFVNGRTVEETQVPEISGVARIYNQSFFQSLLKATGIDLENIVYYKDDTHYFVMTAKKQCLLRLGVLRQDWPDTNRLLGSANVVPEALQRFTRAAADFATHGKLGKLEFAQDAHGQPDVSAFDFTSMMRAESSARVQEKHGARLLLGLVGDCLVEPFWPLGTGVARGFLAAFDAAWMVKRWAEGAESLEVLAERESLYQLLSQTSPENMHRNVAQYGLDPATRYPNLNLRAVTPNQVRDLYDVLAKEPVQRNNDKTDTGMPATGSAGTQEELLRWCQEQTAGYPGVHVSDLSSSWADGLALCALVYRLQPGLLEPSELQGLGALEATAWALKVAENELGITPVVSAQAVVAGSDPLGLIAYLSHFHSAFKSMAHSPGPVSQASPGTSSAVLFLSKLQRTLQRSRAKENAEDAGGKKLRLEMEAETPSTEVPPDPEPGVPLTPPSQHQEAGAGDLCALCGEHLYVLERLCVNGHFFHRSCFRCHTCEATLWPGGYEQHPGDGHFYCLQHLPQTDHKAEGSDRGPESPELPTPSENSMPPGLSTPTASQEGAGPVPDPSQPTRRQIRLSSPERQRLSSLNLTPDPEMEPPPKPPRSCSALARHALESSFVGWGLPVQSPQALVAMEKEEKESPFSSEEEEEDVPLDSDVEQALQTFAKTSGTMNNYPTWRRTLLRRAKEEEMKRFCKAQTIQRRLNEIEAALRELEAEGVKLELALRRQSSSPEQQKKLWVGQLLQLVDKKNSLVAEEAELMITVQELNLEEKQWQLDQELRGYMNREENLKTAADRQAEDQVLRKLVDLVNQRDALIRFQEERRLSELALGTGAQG


Molecular target: T1, Mical-1
Test: ITC

| Kd [nM] | Binder |
| --- | --- |
| 923 | Rab8A 6-176 (protein, GppNHp-bound, C-terminal His6 tag on Rab8A) DYLFKLLLIGDSGVGKTCVLFRFSEDAFNSTFISTIGIDFKIRTIELDGKRIKLQIWDTAGQERFRTITTAYYRGAMGIMLVYDITNEKSFDNIRNWIRNIEEHASADVEKMILGNKCDVNDKRQVSKERGEKLALDYGIKFMETSAKANINVENAFFTLARDIKAKMDKK |
| 913 | Rab8A 6-176 (protein, phosphoSer111 Rab8A, GppNHp-bound, C-terminal His6 tag on Rab8A) DYLFKLLLIGDSGVGKTCVLFRFSEDAFNSTFISTIGIDFKIRTIELDGKRIKLQIWDTAGQERFRTITTAYYRGAMGIMLVYDITNEKSFDNIRNWIRNIEEHASADVEKMILGNKCDVNDKRQVSKERGEKLALDYGIKFMETSAKANINVENAFFTLARDIKAKMDKK |
